Experiments:
[1] = molecular target: T1, 15-30; assay: direct ELISA on plated overlapping 16-mer peptides of AMHR2-ED, 4D12G1 as primary antibody
T1 construct: overlapping 16-mer of human AMHR2-ED; also called p15-30; AMHR2-ED 15-30 16-mer peptide
T1 peptide: VRGSTKTLGELLDTGT
Experimental: (§1) Competitive ELISAs were used to determine the AMHR2-ED sequence recognized by the 4D12G1 mAb. A set of overlapping 16-mer peptides spanning the entire 132 amino acid sequence of human AMHR2-ED was generated. Each peptide shifted by one amino acid and all cysteine residues were replaced by serine to avoid disulfide bond formation (Thermo Fisher). Individual 16-mer peptides were plated in solid phase in microtiter wells, increasing concentrations of each 16-mer peptide were incubated with the 4D12G1 mAb in liquid phase, and ELISAs were performed as described above. The binding site of the 4D12G1 mAb was confirmed by competitive ELISA using overlapping peptides containing alanine substitutions for each amino acid spanning the immunoreactive region of AMEIR2-ED. The substituted peptides were used in liquid phase with the 4D12G1 mAb to determine binding inhibition to rhAMHR2-ED in solid phase. The AMHR2-ED binding sequence of the 4D12G1 mAb and the critical AMHR2-ED residues for such binding were confirmed by SPOT peptide arrays. Peptides spanning the AMHR2-ED 9-40 immunoreactive region and ranging from 4-16-mers in length were synthesized >90% pure on cellulose membranes (JPT Peptide Technologies, Berlin, Germany), treated overnight with blocking buffer (Thermo Fisher), followed by treatment with the 4D12G1 mAb at 1.0 μg/ml for 3 hours at room temperature, followed by three washes with PBS containing 0.01% Tween-20 (Bio-Rad). The membranes were then treated with a 1:10,000 dilution of an HRP-conjugated rabbit anti-mouse IgG (MilliporeSigma) followed by three washes with PBS containing 0.01% Tween-20 (Bio-Rad). Bound antibody was detected using the HyGLO chemiluminescence system (Thomas Scientific).
(§2) An overlapping series of 16-mer peptides spanning the entire 132 amino acid sequence of human AMHR2-ED (FIG. 3A) with moving single amino acid shifts were plated for direct ELISA testing using the 4D12G1 mAb as primary antibody. […] To determine amino acids recognized by the 4D12G1 mAb, an overlapping series of peptides spanning the immunoreactive sequence comprising AMHR2-ED 13-30 were synthesized with alanine substitutions at each N-terminal residue or with glycine substitutions for any native N-terminal alanine.

[2] = molecular target: T2, 16-31; assay: as above
T2 construct: overlapping 16-mer of human AMHR2-ED; also called p16-31; AMHR2-ED 16-31 16-mer peptide
T2 peptide: RGSTKTLGELLDTGTE
Experimental: as §1, §2

[3] = molecular target: T3, 11-26; assay: as above
T3 construct: overlapping 16-mer of human AMHR2-ED; also called p11-26; AMHR2-ED 11-26 16-mer peptide
T3 peptide: EAPGVRGSTKTLGELL
Experimental: as §1, §2

[4] = molecular target: T4, AMHR2-ED 22-26 5-mer peptide (LGELL) (human); assay: SPOT peptide array, 4D12G1 at 1.0 ug/ml, chemiluminescence
T4 construct: Synthesised on a cellulose membrane (SPOT peptide array); also called 22LGELL26; Residues 22-26 of AMHR2-ED and 39-43 of AMHR2
T4 peptide: LGELL
Experimental: (§3) The AMHR2-ED binding sequence of the 4D12G1 mAb and the critical AMHR2-ED residues for such binding were confirmed by SPOT peptide arrays. Peptides spanning the AMHR2-ED 9-40 immunoreactive region and ranging from 4-16-mers in length were synthesized >90% pure on cellulose membranes (JPT Peptide Technologies, Berlin, Germany), treated overnight with blocking buffer (Thermo Fisher), followed by treatment with the 4D12G1 mAb at 1.0 μg/ml for 3 hours at room temperature, followed by three washes with PBS containing 0.01% Tween-20 (Bio-Rad). The membranes were then treated with a 1:10,000 dilution of an HRP-conjugated rabbit anti-mouse IgG (MilliporeSigma) followed by three washes with PBS containing 0.01% Tween-20 (Bio-Rad). Bound antibody was detected using the HyGLO chemiluminescence system (Thomas Scientific).
An overlapping series of 16-mer peptides spanning the entire 132 amino acid sequence of human AMHR2-ED (FIG. 3A) with moving single amino acid shifts were plated for direct ELISA testing using the 4D12G1 mAb as primary antibody. […] To determine amino acids recognized by the 4D12G1 mAb, an overlapping series of peptides spanning the immunoreactive sequence comprising AMHR2-ED 13-30 were synthesized with alanine substitutions at each N-terminal residue or with glycine substitutions for any native N-terminal alanine. […] Bound antibody was detected by chemiluminescence.

[5] = molecular target: T5, p20-26; assay: SPOT peptide array on cellulose membrane, 4D12G1 at 1.0 µg/ml, chemiluminescence
T5 construct: SPOT array peptide on cellulose membrane; residues 20-26 of AMHR2-ED; also called AMHR2-ED 20-26 7-mer peptide; KTLGELL
T5 peptide: KTLGELL
Experimental: as §3
(§4) An overlapping series of 16-mer peptides spanning the entire 132 amino acid sequence of human AMHR2-ED (FIG. 3A) with moving single amino acid shifts were plated for direct ELISA testing using the 4D12G1 mAb as primary antibody. […] To determine amino acids recognized by the 4D12G1 mAb, an overlapping series of peptides spanning the immunoreactive sequence comprising AMHR2-ED 13-30 were synthesized with alanine substitutions at each N-terminal residue or with glycine substitutions for any native N-terminal alanine. These peptides were used in competitive ELISAs to determine which residues inhibit binding of the 4D12G1 mAb with solid phase rhAMHR2-ED. […] To determine the minimal AMHR2-ED sequence involved in the binding of the 4D12G1 mAb, SPOT peptide arrays were generated spanning the immunoreactive region of AMHR2-ED. Peptides ranging from 4-16-mers in length were immobilized on cellulose membranes and treated with the 4D12G1 mAb. Bound antibody was detected by chemiluminescence.

[6] = molecular target: T6, p20-35; assay: as above
T6 construct: SPOT array peptide on cellulose membrane; also called AMHR2-ED 20-35 16-mer peptide
T6 peptide: KTLGELLDTGTELPRA
Experimental: as §3, §4

[7] = molecular target: T7, p21-36; assay: as above
T7 construct: SPOT array peptide on cellulose membrane; also called AMHR2-ED 21-36 16-mer peptide
T7 peptide: TLGELLDTGTELPRAI
Experimental: as §3, §4

[8] = molecular target: T8, p22-37; assay: as above
T8 construct: SPOT array peptide on cellulose membrane; also called AMHR2-ED 22-37 16-mer peptide
T8 peptide: LGELLDTGTELPRAIR
Experimental: as §3, §4

Measured: binding result

B1: 4D12G1 mAb (antibody, IgG1, V domains shown)
VH: DVKLVESGGGLVKLGGSLKLSCAASGFTFSRYFMSWVRQTPEKRLELVAAINSDGGRTYYPDTVKGRFTISRDNAKNTLYLQMSSLKSEDTALYYCTRHIYSYYEDYFDYWGQGTTLTVSS
VL: DVVMTQTPLSLPVSLGDQASISCRSSQSLVHSNGNTYLHWYLQKPGQSPKLLIYKVSKRFSGVPDRFSGSGSGTDFTLKISRVEAEDLGVYFCSQSTHVYTFGGGTKLEIK
notes: also called 4D12G1 IgG1 mAb
binds: all assays above

From US20230078601A1 (CLEVELAND CLINIC FOUNDATION, published 2023)
